B1: TAF9 (natural protein, human, UniProt Q16594 1-264, looked up)
chain: MESGKTASPKSMPKDAQMMAQILKDMGITEYEPRVINQMLEFAFRYVTTILDDAKIYSSHAKKATVDADDVRLAIQCRADQSFTSPPPRDFLLDIARQRNQTPLPLIKPYSGPRLPPDRYCLTAPNYRLKSLQKKASTSAGRITVPRLSVGSVTSRPSTPTLGTPTPQTMSVSTKVGTPMSLTGQRFTVQMPTSQSPAVKASIPATSAVQNVLINPSLIGSKNILITTNMMSSQNTANESSNALKRKREDDDDDDDDDDDYDNL
B2: GTF2A2 (natural protein, human, UniProt P52657 1-109, looked up)
chain: MAYQLYRNTTLGNSLQESLDELIQSQQITPQLALQVLLQFDKAINAALAQRVRNRVNFRGSLNTYRFCDNVWTFVLNDVEFREVTELIKVDKVKIVACDGKNTGSNTTE
B3: MED31 (natural protein, human, UniProt Q9Y3C7 1-131, looked up)
chain: MAAAVAMETDDAGNRLRFQLELEFVQCLANPNYLNFLAQRGYFKDKAFVNYLKYLLYWKDPEYAKYLKYPQCLHMLELLQYEHFRKELVNAQCAKFIDEQQILHWQHYSRKRMRLQQALAEQQQQNNTSGK
B4: GTF2E2 (natural protein, human, UniProt P29084 1-291, looked up)
chain: MDPSLLRERELFKKRALSTPVVEKRSASSESSSSSSKKKKTKVEHGGSSGSKQNSDHSNGSFNLKALSGSSGYKFGVLAKIVNYMKTRHQRGDTHPLTLDEILDETQHLDIGLKQKQWLMTEALVNNPKIEVIDGKYAFKPKYNVRDKKALLRLLDQHDQRGLGGILLEDIEEALPNSQKAVKALGDQILFVNRPDKKKILFFNDKSCQFSVDEEFQKLWRSVTVDSMDEEKIEEYLKRQGISSMQESGPKKVAPIQRRKKPASQKKRRFKTHNEHLAGVLKDYSDITSSK
B5: MED11 (natural protein, human, UniProt Q9P086 1-117, looked up)
chain: MATYSLANERLRALEDIEREIGAILQNAGTVILELSKEKTNERLLDRQAAAFTASVQHVEAELSAQIRYLTQVATGQPHEGSSYSSRKDCQMALKRVDYARLKLSDVARTCEQMLEN

What follows are binders tested against recombinant NPM1 (Nucleophosmin), probe of the protein array (human, UniProt P06748 1-294) (assay: peptide or protein array).
Sequence of recombinant NPM1 (Nucleophosmin), probe of the protein array (P06748 whole entry): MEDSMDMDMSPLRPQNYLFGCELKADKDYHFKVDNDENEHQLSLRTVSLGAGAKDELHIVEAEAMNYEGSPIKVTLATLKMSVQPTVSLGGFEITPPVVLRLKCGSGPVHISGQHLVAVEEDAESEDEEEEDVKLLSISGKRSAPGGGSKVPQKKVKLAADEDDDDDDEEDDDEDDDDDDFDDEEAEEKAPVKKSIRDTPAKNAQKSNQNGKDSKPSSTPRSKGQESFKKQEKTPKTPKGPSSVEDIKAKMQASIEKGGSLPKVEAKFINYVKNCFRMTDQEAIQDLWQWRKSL

Binder	binding result
B1	binds
B2	binds
B3	binds
B4	binds
B5	binds

From publication doi:10.1101/852095 (bioRxiv, 2019)
